# Assay results reported in US20050037949A1, “Mannose binding lectin and uses thereof” (priority 2002, published 2005).
# Like-named read-outs stand apart in the source and are kept apart here.
# What was measured:
# [1] = biological target: MBL associated serine protease 2 (MASP2) (human) (UniProt O00187); assay: cell-based or functional assay
# [2] = biological target: MBL associated serine protease 2 (MASP2) (human) (UniProt O00187); assay: cell-based or functional assay; remark: listed apart in the source
# Sequence of affinity purified MBL-MASP complex (P11226 21-248, one chain of several): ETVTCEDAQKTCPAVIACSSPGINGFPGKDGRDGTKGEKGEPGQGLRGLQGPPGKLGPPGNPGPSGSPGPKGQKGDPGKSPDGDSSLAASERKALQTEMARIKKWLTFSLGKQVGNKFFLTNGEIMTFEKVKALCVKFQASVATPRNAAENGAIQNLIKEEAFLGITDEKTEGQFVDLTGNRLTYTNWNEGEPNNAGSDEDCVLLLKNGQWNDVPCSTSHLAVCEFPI
# Sequence of MBL associated serine protease 2 (MASP2) (human) (O00187 16-686 limits assumed): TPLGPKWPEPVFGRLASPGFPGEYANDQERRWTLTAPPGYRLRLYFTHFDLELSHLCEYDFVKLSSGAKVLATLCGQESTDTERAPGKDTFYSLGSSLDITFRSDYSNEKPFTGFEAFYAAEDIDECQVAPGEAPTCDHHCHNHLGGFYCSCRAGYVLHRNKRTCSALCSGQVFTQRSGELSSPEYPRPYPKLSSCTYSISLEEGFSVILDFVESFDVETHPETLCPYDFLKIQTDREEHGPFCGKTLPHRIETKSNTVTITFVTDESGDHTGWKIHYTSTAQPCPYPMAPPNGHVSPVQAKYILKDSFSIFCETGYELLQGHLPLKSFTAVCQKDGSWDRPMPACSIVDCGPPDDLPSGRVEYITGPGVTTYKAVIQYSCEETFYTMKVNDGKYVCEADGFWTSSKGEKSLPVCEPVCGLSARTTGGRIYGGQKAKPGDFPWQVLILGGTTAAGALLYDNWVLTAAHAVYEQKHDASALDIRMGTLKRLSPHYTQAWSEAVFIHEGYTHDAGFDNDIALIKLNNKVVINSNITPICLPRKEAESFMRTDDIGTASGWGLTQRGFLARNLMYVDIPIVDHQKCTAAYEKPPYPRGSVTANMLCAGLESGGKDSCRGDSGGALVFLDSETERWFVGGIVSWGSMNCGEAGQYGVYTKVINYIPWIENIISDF
substance,measurement,setting,value
affinity purified MBL-MASP complex (from UniProt P11226 21-248),C4 deposition at MBL 0.471 ug/mL,[1],0.054 U/ul
same,C4 deposition at MBL 1.065 ug/mL,[1],0.057 U/ul
same,C4 deposition at MBL 2.237 ug/mL,[1],0.104 U/ul
same,C4 deposition at MBL 2.802 ug/mL,[1],0.114 U/ul
same,C4 deposition at MBL 4.011 ug/mL,[1],0.138 U/ul
same,C4 deposition at MBL 4.681 ug/mL,[1],0.171 U/ul
same,C4 deposition at MBL 5.382 ug/mL,[1],0.159 U/ul
same,C4 deposition at MBL 6.814 ug/mL,[1],0.19 U/ul
same,C4 deposition at MBL 7.967 ug/mL,[1],0.203 U/ul
same,C4 deposition at MBL 10.998 ug/mL,[1],0.22 U/ul
same,C4 deposition at MBL 40 ug/mL,[1],0.292 U/ul
same,C4 deposition at MBL 50 ug/mL,[1],0.308 U/ul
same,C4 deposition at MBL 0.624 ug/mL,[2],0.05 U/ul
same,C4 deposition at MBL 1.032 ug/mL,[2],0.068 U/ul
same,C4 deposition at MBL 2.081 ug/mL,[2],0.103 U/ul
same,C4 deposition at MBL 3.3 ug/mL,[2],0.197 U/ul
same,C4 deposition at MBL 4.08 ug/mL,[2],0.138 U/ul
same,C4 deposition at MBL 4.42 ug/mL,[2],0.168 U/ul
same,C4 deposition at MBL 5.95 ug/mL,[2],0.172 U/ul
same,C4 deposition at MBL 6.94 ug/mL,[2],0.197 U/ul
same,C4 deposition at MBL 11.41 ug/mL,[2],0.204 U/ul
same,C4 deposition at MBL 15 ug/mL,[2],0.246 U/ul
same,"C4 deposition at MBL 25 µg/mL (previous assay, same batch)",[2],0.27 U/µl
same,C4 deposition at MBL 40 ug/mL,[2],0.321 U/ul
same,C4 deposition at MBL 50 ug/mL,[2],0.289 U/ul
